Data on one substance can be found in patent US20200369772A1 (ABBA THERAPEUTICS, published 2020).

Assay [1] deals with endogenous PD-L2 (human) (UniProt Q9BQ51). Description: FACS, NCI-H226 cells. (In general: In flow cytometry, cells or beads pass a laser one at a time.)
The target is the same in assay [2]. Description: FACS, NCI-H226 cells. This is another data set of the same source.
The target of assay [3] is PD-L2 (human) (UniProt Q9BQ51). Description: FACS, CHO-K1 expressing human PD-L2.
Assay [4] addresses PD-L2 (human) (UniProt Q9BQ51). Description: FACS blocking of PD-1 binding to CHO-K1/hPD-L2; high antigen concentration.
Assay [5] deals with PD-L2 (human) (UniProt Q9BQ51). Described as above. This is another data set of the same source.
The target of assay [6] is PD-L2 (human) (UniProt Q9BQ51). Description: FACS blocking of hPD-L2 binding to HEK293T-hPD-1; low antigen concentration.
Assay [7] addresses PD-L2 (human) (UniProt Q9BQ51). Description: blocking of PD-L2 - PD-1 interaction (cell binding); low antigen concentration.

Read-outs that look alike come from different tables or passages of the source.

Consider MIH18, for which the EC50 (usually the midpoint of the concentration-response curve) with endogenous PD-L2 (human) [1] came to 2.21 nM; with endogenous PD-L2 (human) [2], 2.69 nM; with PD-L2 (human) [3], 1.59 nM. Further, the IC50 – broadly, the concentration at which inhibition is half-maximal – worked out at 2.42 nM with PD-L2 (human) [4], 1.8 nM with PD-L2 (human) [5], 0.104 nM in the assay with PD-L2 (human) [6] and 0.0671 nM with PD-L2 (human) [7].
